The source of these data is the supplement of paper PMC10724198.

± gives the standard deviation of the averaged measurements.

The test system of this series is Saccharomyces cerevisiae. Briefly: protein stability index of tFT-peptide fusion (C-terminal peptide) (PSI (0-1 scale)); higher = more stable (slower turnover). To be noted: temperature: 30 C. The method, then: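 MPS profiling in S. cerevisiae of the yeast C-terminome library: the last 12 aa of each annotated ORF are fused to the C-terminus of a sfGFP-mCherry timer, after a GGGS linker. Cells are FACS-sorted into 8 mCherry/sfGFP bins and deep-sequenced. PSI runs from 0 (unstable) to 1 (stable); wild type and das1Δ backgrounds, two technical replicates each.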

The mark [1] stands for this setting: genetic background: das1 deletion.

For LPNVPTVAYVII [YNL319W C-terminal 12 aa], the protein stability index reads like this: under setting [1], 0.6334 ± 0.0054; (genetic background: wild type) 0.664 ± 0.024.
For LPPEGKPKGKDD [TAZ1 C-terminal 12 aa], in that order: 0.701 ± 0.018 and 0.661 ± 0.018.
Regarding LQARLNTLKKQT [DID4 C-terminal 12 aa], the protein stability index reads like this: under setting [1], 0.681 ± 0.049; (genetic background: wild type) 0.604 ± 0.0095.
For LQPLIDLDIDNK [ICS2 C-terminal 12 aa], in that order: 0.699 ± 0.026 and 0.702 ± 0.041.
As for LQRLCKKYPEIY [RFA3 C-terminal 12 aa], the protein stability index runs as follows: under setting [1], 0.709 ± 0.015; (genetic background: wild type) 0.703 ± 0.02.
For LRIYKNPPLDGP [YJL163C C-terminal 12 aa], in that order: 0.729 ± 0.022 and 0.745 ± 0.017.
For LRRYEEDLFCTF [IES2 C-terminal 12 aa], in that order: 0.759 ± 0.029 and 0.7425 ± 0.0059.
Sequence LRWKKRNGIASK [NOP16 C-terminal 12 aa] came in with a protein stability index under setting [1] of 0.636 ± 0.017 and a protein stability index (genetic background: wild type) of 0.663 ± 0.028.
For LSHKGIKHLNIT [YGR266W C-terminal 12 aa], in that order: 0.702 ± 0.022 and 0.68 ± 0.057.
For LSKRRTRLINFN [PXL1 C-terminal 12 aa], the protein stability index is, setting by setting: under setting [1], 0.727 ± 0.013; (genetic background: wild type) 0.538 ± 0.047.
On to LSLRTKNTENKE [YGL159W C-terminal 12 aa], for which the protein stability index by setting is: under setting [1], 0.716 ± 0.038; (genetic background: wild type) 0.688 ± 0.033.
As to LSQRVKKEYAAN [COQ21 C-terminal 12 aa], the protein stability index reads like this: under setting [1], 0.708 ± 0.024; (genetic background: wild type) 0.685 ± 0.0074.
For LSSSDDNYGSLA [SNA2 C-terminal 12 aa], the protein stability index is, setting by setting: under setting [1], 0.702 ± 0.013; (genetic background: wild type) 0.669 ± 0.034.
Turning to LTARRKNRQQWE [COX23 C-terminal 12 aa], the protein stability index runs as follows: under setting [1], 0.704 ± 0.022; (genetic background: wild type) 0.692 ± 0.024.
For LTINDLDVTFVI [YCR041W C-terminal 12 aa], in that order: 0.721 ± 0.022 and 0.71 ± 0.0024.
The like results for LTTSVLCCVVFT [CNE1 C-terminal 12 aa] were, in that order, 0.348 ± 0.0076 and 0.364 ± 0.0028.
On to “LTYNTSCQRRQK [YOR161W-A C-terminal 12 aa]”, for which the protein stability index runs as follows: under setting [1], 0.715 ± 0.0089; (genetic background: wild type) 0.717 ± 0.072.
The like results for LVSYFLKVQMNL [YNL095C C-terminal 12 aa] were, in that order, 0.514 ± 0.02 and 0.491 ± 0.011.
Consider LYKPSVWDLFEY [FZF1 C-terminal 12 aa], for which the protein stability index came to 0.716 ± 0.016 under setting [1] and 0.6818 ± 0.0023 (genetic background: wild type).
For LYVCIYISAFIK [FYV12 C-terminal 12 aa], in that order: 0.137 ± 0.019 and 0.143 ± 0.0053.
For MAHRIKNFRDEL [SIL1 C-terminal 12 aa], in that order: 0.712 ± 0.0079 and 0.672 ± 0.032.
Sequence MAINDCFDQAQG [YER076C C-terminal 12 aa] had a protein stability index under setting [1] of 0.695 ± 0.0062 and a protein stability index (genetic background: wild type) of 0.693 ± 0.012.
On to MASVVKGNATSA [PHO90 C-terminal 12 aa], for which the protein stability index stood at 0.69425 ± 0.00061 under setting [1] and 0.688 ± 0.027 (genetic background: wild type).
Consider MDLKRFKGEFSF [PEX5 C-terminal 12 aa], for which the protein stability index was 0.69824 ± 0.00026 under setting [1] and 0.685 ± 0.036 (genetic background: wild type).
For MDSRVAHGNILI [SRB5 C-terminal 12 aa], the protein stability index was determined as 0.70004 ± 0.00046 under setting [1] and 0.688 ± 0.092 (genetic background: wild type).
For MGCIKGTVKTKY [ABZ2 C-terminal 12 aa], in that order: 0.668 ± 0.039 and 0.756 ± 0.14.
Turning to MIENEKQNPAKQ [OSH6 C-terminal 12 aa], the protein stability index runs as follows: under setting [1], 0.693 ± 0.0075; (genetic background: wild type) 0.692 ± 0.028.
For MMGFSNFATSKK [SNU23 C-terminal 12 aa], in that order: 0.728 ± 0.011 and 0.683 ± 0.035.
The like results for MNKKHHKPIPFD [RRD2 C-terminal 12 aa] were, in that order, 0.762 ± 0.027 and 0.697 ± 0.0073.
Turning to MPSATTKNPYAQ [CAF120 C-terminal 12 aa], the protein stability index was found to be 0.709 ± 0.042 under setting [1] and 0.686 ± 0.034 (genetic background: wild type).
As for MRLLGLTPVERM [YDR341C C-terminal 12 aa], the protein stability index turned out to be 0.672 ± 0.00072 under setting [1] and 0.696 ± 0.034 (genetic background: wild type).
For MTRLKKLLTLEW [ZIP2 C-terminal 12 aa], in that order: 0.817 ± 0.047 and 0.733 ± 0.046.
The like results for MVSSLRNANHIF [BCS1 C-terminal 12 aa] were, in that order, 0.712 ± 0.028 and 0.681 ± 0.025.
Turning to NAKSKVFSIENN [LSG1 C-terminal 12 aa], the protein stability index by setting is: under setting [1], 0.681 ± 0.039; (genetic background: wild type) 0.678 ± 0.015.
For NCEPIATTFRAN [MGL2 C-terminal 12 aa], in that order: 0.7086 ± 0.00098 and 0.681 ± 0.018.
Turning to NDDSKDEDDIIP [MAL33 C-terminal 12 aa], the protein stability index is, setting by setting: under setting [1], 0.6831 ± 0.0019; (genetic background: wild type) 0.731 ± 0.056.
The like results for NDTEHVTLHTNT [YDL228C C-terminal 12 aa] were, in that order, 0.711 ± 0.0095 and 0.688 ± 0.031.
The like results for NEASKATGASVH [YOP1 C-terminal 12 aa] were, in that order, 0.7 ± 0.0098 and 0.737 ± 0.094.
For NGPVNNNAHLVA [FAT3 C-terminal 12 aa], in that order: 0.689 ± 0.0098 and 0.709 ± 0.049.
For NGSDNVTPGGRL [STE50 C-terminal 12 aa], the protein stability index stood at 0.708 ± 0.014 under setting [1] and 0.685 ± 0.022 (genetic background: wild type).
For the sequence NIIIIILYVYIH [MOR1 C-terminal 12 aa], the protein stability index came out at 0.227 ± 0.0036 under setting [1] and 0.228 ± 0.025 (genetic background: wild type).
The like results for NISNGSSTQDMK [HPR1 C-terminal 12 aa] were, in that order, 0.703 ± 0.029 and 0.704 ± 0.065.
The like results for NKGSQLLAKLLK [PUF6 C-terminal 12 aa] were, in that order, 0.7305 ± 0.0034 and 0.674 ± 0.036.
For NKHDLHLRPETY [YAR010C C-terminal 12 aa], in that order: 0.658 ± 0.018 and 0.678 ± 0.021.
Take “NKHDLHLRPGTY [YDR098C-A C-terminal 12 aa]”: the protein stability index turned out to be 0.66848 ± 3.1e-05 under setting [1] and 0.658 ± 0.007 (genetic background: wild type).
For NKLLDKESVSED [YLR046C C-terminal 12 aa], in that order: 0.709 ± 0.027 and 0.711 ± 0.11.
For “NKTICLRNYHWL [YIR017W-A C-terminal 12 aa]”, in that order: 0.702 ± 0.012 and 0.607 ± 0.0078.
For NLKLKFNENIME [DIT2 C-terminal 12 aa], in that order: 0.695 ± 0.033 and 0.639 ± 0.0087.
NLLLSGSLYQKN [BUD28 C-terminal 12 aa]: the protein stability index was found to be 0.751 ± 0.011 under setting [1] and 0.672 ± 0.036 (genetic background: wild type).
As for NMEKFVRKCWKD [MKK1 C-terminal 12 aa], the protein stability index is, setting by setting: under setting [1], 0.691 ± 0.059; (genetic background: wild type) 0.73796 ± 0.00058.
The like results for NQVKLNQLLVGN [CSE1 C-terminal 12 aa] were, in that order, 0.627 ± 0.038 and 0.641 ± 0.0068.
For NTLLSPSRKDNS [MVB12 C-terminal 12 aa], in that order: 0.705 ± 0.0098 and 0.698 ± 0.034.
For the sequence NVAAAEASKKGN [YET1 C-terminal 12 aa], the protein stability index runs as follows: under setting [1], 0.728 ± 0.033; (genetic background: wild type) 0.685 ± 0.053.
For NVDDAYSRVFGI [MPS2 C-terminal 12 aa], in that order: 0.719 ± 0.011 and 0.673 ± 0.025.
The like results for NVEDEYSYSLTL [VPS68 C-terminal 12 aa] were, in that order, 0.701 ± 0.0071 and 0.706 ± 0.066.
The like results for NVGNNEETLDDH [RAD34 C-terminal 12 aa] were, in that order, 0.726 ± 0.047 and 0.701 ± 0.067.
NVWDWNNWTSAT [GAL11 C-terminal 12 aa]: the protein stability index is 0.7485 ± 0.006 under setting [1] and 0.767 ± 0.012 (genetic background: wild type).
For NYESVEVPAANN [YML018C C-terminal 12 aa], in that order: 0.682 ± 0.0077 and 0.7097 ± 0.0019.
For PARESMLHKEIK [ADE12 C-terminal 12 aa], in that order: 0.745 ± 0.011 and 0.668 ± 0.011.
For “PCYSDAPPRFMC [YER152W-A C-terminal 12 aa]”, in that order: 0.701 ± 0.034 and 0.287 ± 0.0035.
For PDMIEELDLHED [GPD1 C-terminal 12 aa], the protein stability index reads like this: under setting [1], 0.716 ± 0.031; (genetic background: wild type) 0.749 ± 0.1.
For “PDYKSNTQILVL [YOL155W-A C-terminal 12 aa]”, in that order: 0.56446 ± 0.00018 and 0.584 ± 0.029.
For PEEETNWFSGHG [PRP31 C-terminal 12 aa], in that order: 0.745 ± 0.032 and 0.73 ± 0.025.
The like results for PEMIEELDIDDE [GPD2 C-terminal 12 aa] were, in that order, 0.707 ± 0.018 and 0.658 ± 0.015.
Consider PEYDQVKQNNKE [YLR041W C-terminal 12 aa], for which the protein stability index is 0.691 ± 0.023 under setting [1] and 0.676 ± 0.03 (genetic background: wild type).
For PFNRNVSDKLKK [VAC14 C-terminal 12 aa], in that order: 0.733 ± 0.038 and 0.713 ± 0.063.
The like results for PGVMLGRWKVTA [VPS61 C-terminal 12 aa] were, in that order, 0.612 ± 0.013 and 0.356 ± 0.0069.
